The labels stand for the following.
B1: TDP-43 prion-like domain, TDP-43(267–414) (domain or fragment, UniProt Q13148 267-414, looked up)
chain: NRQLERSGRFGGNPGGFGNQGGFGNSRGGGAGLGNNQGSNMGGGMNFGAFSINPAMMAAAQAALQSSWGMMGMLASQQNQSGPSGNNQNQGNMQREPNQAFGSGNNSYSGSNSGAAIGWGSASNAGSGSGFNGGFGSSMDSKSSGWGM
notes: Uniformly 15N or 15N/13C labelled for NMR; Fibril seeds of this molecule (from the SSNMR rotor) are the target in the cross-seeding assay; also called TDP-43 PrLD; PrLD of TDP-43; source: E. coli BL21 Star (DE3), inclusion bodies, purified (Ni-NTA in 8 M urea, PD-10 desalting at pH 4)

Data set [1] concerns the molecule itself. Nature of the data set: solution NMR, 1H-15N HSQC peak intensities over time; 55 and 110 μM TDP-43 PrLD, pH 4.0, 298 K, 1 mM CD3COOD in 85/15 H2O/D2O, no salt or RNA; first spectrum within 1 hour, second after approximately 20 hours; self-association into aggregates and droplets.
For data set [2], the target named is B1. Nature of the data set: cross-seeding followed by ThT fluorescence; 5 μM of each protein variant in 1 mM CD3COOD with 40 μM ThT, 2% (0.12 μM) seeds of the wild-type fibrils studied by SSNMR, 25°C, excitation 450 nm, emission 480 nm. Particulars: both partners purified.

Regarding B1, in data set [1], the binding result is given as “binds”.

B2: TDP-43 PrLD variant F313A+F316A (domain or fragment, UniProt Q13148 267-414, looked up)
chain: NRQLERSGRFGGNPGGFGNQGGFGNSRGGGAGLGNNQGSNMGGGMNAGAASINPAMMAAAQAALQSSWGMMGMLASQQNQSGPSGNNQNQGNMQREPNQAFGSGNNSYSGSNSGAAIGWGSASNAGSGSGFNGGFGSSMDSKSSGWGM
notes: TDP-43 prion-like domain, residues 267-414, with the 2 central Phe residues changed to Ala; The text prints the variant once as F312A+F316A and otherwise as F313A+F316A; also called double mutant; F312A+F316A (as printed once); source: desalted from the 8 M urea-containing solution with a PD-10 column
Turning to B2, the binding result in data set [2] is on record as “binds”.

Values taken from PMC8109789, “Phe-Gly motifs drive fibrillization of TDP-43’s prion-like domain condensates” (PLoS Biology, 2021).
